{
  "source": "paper PMC3251565",
  "biological_target": "platelet integrin αIIbβ3 (human (endogenous in platelets)) (UniProt P08514)",
  "data": [
    {"substance": "Rhodostomin (from UniProt P30403) (natural protein)", "values": [
      {"measurement": "IC50 (KI in the text) of inhibition of ADP-induced platelet aggregation in human PRP", "value": 0.0832, "unit": "µM"}
    ]}
  ]
}
